# Results from the supplement of paper PMC9112550, “Optimization of the antimicrobial peptide Bac7 by deep mutational scanning” (BMC Biology, 2022).
# System: Escherichia coli TOP10
# Assay: shrunken log2 fold change of peptide-encoding DNA abundance (4.5 h post-induction vs induction); higher = less antimicrobial activity (less host growth inhibition)
# Settings: time post-induction: 4.5 h; library: site-saturation at positions 5, 18, 19, 20
# 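Further: peptides expressed intracellularly from a pBAD plasmid library in pooled LB shake-flask culture, induced with 0.3% L-arabinose, DNA abundance read by NGS, three biological replicates, DESeq2 with apeglm shrinkage.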
row,Sequence,shrunken log2 fold change
1,RRIRTRPPRLPRPRPRPEHCPRP,-0.0755
2,RRIRKRPPRLPRPRPRPMSDPRP,0.364
3,RRIRARPPRLPRPRPRPDSRPRP,0.12
4,RRIRHRPPRLPRPRPRPIMMPRP,0.013
5,RRIRNRPPRLPRPRPRPVAFPRP,-0.119
6,RRIRNRPPRLPRPRPRPPGSPRP,-0.123
7,RRIRYRPPRLPRPRPRPRMDPRP,-0.0437
8,RRIRPRPPRLPRPRPRPCKCPRP,-0.275
9,RRIRDRPPRLPRPRPRPHAPPRP,0.144
10,RRIRRRPPRLPRPRPRPYPLPRP,0.015
11,RRIRARPPRLPRPRPRPFADPRP,0.438
12,RRIRWRPPRLPRPRPRPMLTPRP,0.391
13,RRIRCRPPRLPRPRPRPNYAPRP,-0.0784
14,RRIRDRPPRLPRPRPRPCRRPRP,-0.155
15,RRIRTRPPRLPRPRPRPYASPRP,-0.255
16,RRIRQRPPRLPRPRPRPWKFPRP,0.0543
17,RRIRFRPPRLPRPRPRPQPIPRP,0.222
18,RRIRIRPPRLPRPRPRPIWKPRP,-0.0131
19,RRIRGRPPRLPRPRPRPMRGPRP,1.09
20,RRIRCRPPRLPRPRPRPNTCPRP,-0.463

row,Sequence,shrunken log2 fold change
1,RRIRERPPRLPRPRPRPTEVPRP,-0.121
2,RRIRERPPRLPRPRPRPEMWPRP,0.452
3,RRIRMRPPRLPRPRPRPAPSPRP,1.28
4,RRIRFRPPRLPRPRPRPQREPRP,0.296
5,RRIRHRPPRLPRPRPRPQLGPRP,0.375
6,RRIRGRPPRLPRPRPRPRGYPRP,0.382
7,RRIRPRPPRLPRPRPRPERRPRP,0.158
8,RRIRNRPPRLPRPRPRPENVPRP,-0.123
9,RRIRIRPPRLPRPRPRPPWTPRP,0.0205
10,RRIRARPPRLPRPRPRPPSMPRP,0.425
11,RRIRGRPPRLPRPRPRPPYEPRP,0.0264
12,RRIRMRPPRLPRPRPRPKFHPRP,-0.174
13,RRIRERPPRLPRPRPRPEVLPRP,0.28
14,RRIRRRPPRLPRPRPRPKPAPRP,0.347
15,RRIRYRPPRLPRPRPRPEAQPRP,0.151
16,RRIRCRPPRLPRPRPRPWGEPRP,-0.0965
17,RRIRERPPRLPRPRPRPHSKPRP,-0.313
18,RRIRSRPPRLPRPRPRPYCMPRP,-0.881
19,RRIRKRPPRLPRPRPRPMYVPRP,-0.0793
20,RRIRCRPPRLPRPRPRPNCPPRP,-0.413

row,Sequence,shrunken log2 fold change
1,RRIRPRPPRLPRPRPRPMKIPRP,0.0483
2,RRIRFRPPRLPRPRPRPDNKPRP,-0.853
3,RRIRCRPPRLPRPRPRPFPCPRP,-0.367
4,RRIRSRPPRLPRPRPRPSSWPRP,0.206
5,RRIRNRPPRLPRPRPRPINWPRP,-0.133
6,RRIRHRPPRLPRPRPRPDCLPRP,-0.228
7,RRIRERPPRLPRPRPRPMTNPRP,-0.112
8,RRIRNRPPRLPRPRPRPIPIPRP,-0.0823
9,RRIRYRPPRLPRPRPRPVAIPRP,-0.702
10,RRIRTRPPRLPRPRPRPWSMPRP,-0.36
11,RRIRWRPPRLPRPRPRPERNPRP,-0.117
12,RRIRMRPPRLPRPRPRPFVTPRP,-0.269
13,RRIRERPPRLPRPRPRPHSIPRP,-0.0535
14,RRIRFRPPRLPRPRPRPSWEPRP,-0.0476
15,RRIRMRPPRLPRPRPRPPIAPRP,0.826
16,RRIRWRPPRLPRPRPRPPSMPRP,0.405
17,RRIRIRPPRLPRPRPRPFFPPRP,-0.264
18,RRIRIRPPRLPRPRPRPQRYPRP,0.159
19,RRIRERPPRLPRPRPRPYAQPRP,-0.384
20,RRIRNRPPRLPRPRPRPFHYPRP,-0.925
